Broadly, the Kd is a measure of binding affinity in units of concentration. Higher therefore signals weaker binding.

Bounds are passed on as bounds.

The target of this test is T1, human galectin-9 CRD2 domain (human, UniProt O00182 227-355, limits assumed).
T1 construct: domain: CRD2; also called human CRD2 domain of galectin-9
Nature of the test: ELISA; antibody titrated over immobilized Galectin-9 CRD2, saturation curve. On the technique in general: An ELISA detects its analyte on a solid surface through an enzyme-linked reagent.

T1 sequence (O00182 227-355 limits assumed): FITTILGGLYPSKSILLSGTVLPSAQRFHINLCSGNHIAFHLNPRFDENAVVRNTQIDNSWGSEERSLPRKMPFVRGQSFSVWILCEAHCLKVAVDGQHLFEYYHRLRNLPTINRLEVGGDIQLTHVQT

B1: anti-Galectin-9 antibody G9.2-17 (IgG4) (antibody, V domains shown)
VH: EVQLVESGGGLVQPGGSLRLSCAASGFTVSSSSIHWVRQAPGKGLEWVAYISSSSGYTYYADSVKGRFTISADTSKNTAYLQMNSLRAEDTAVYYCARYWSYPSWWPYRGMDYWGQGTLVTVSS
VL: DIQMTQSPSSLSASVGDRVTITCRASQSVSSAVAWYQQKPGKAPKLLIYSASSLYSGVPSRFSGSRSGTDFTLTISSLQPEDFATYYCQQSSTDPITFGQGTKVEIKR
notes: Human IgG4 with S228P (EU); also called G9.2-17(Ig4); G9.2-17 hIgG4 Fab Arm Exchange mut
In turn, B1 showed a Kd of less than 1 nM.

These data come from patent publication US20240109968A1 (NEW YORK UNIVERSITY, published 2024).
